We go through one molecule from patent publication US20140357845A1.

Usually Kd stands for the constant that tells how readily two partners part at equilibrium.

What all share (conditions): remark: other sources report otherwise
Assay [1] has as its target T1, s-H1-mini2-cluster1 + 5 + 6-GCN4 (A/Brisbane/59/2007) (influenza A virus H1N1).
Assay [2] has as its target H1-mini2-cluster1 + 5 + 6-trim (influenza A virus H1N1), A8C8J4. Nature of the assay: FACS. A general note: A flow cytometer gives signals particle by particle.
Assay [3] addresses mini2 cluster11 + 5 (A/Brisbane/59/2007) (influenza A virus H1N1), A8C8J4. Description: FACS.
For assay [4], the target named is mini2-cluster1 + 5 (A/Brisbane/59/2007) (influenza A virus H1N1), A8C8J4. Description: FACS.
Assay [5] concerns the target mini2-cluster11 + 5 + 6 (A/Brisbane/59/2007) (influenza A virus H1N1), A8C8J4. Nature of the assay: FACS.
The target of assay [6] is miniHA cluster1 (A/Brisbane/59/2007) (influenza A virus H1N1), A8C8J4. Description: FACS.
For assay [7], the target named is T1, s-H1-mini2-cluster1 + 5 + 6-GCN4 …. Nature of the assay: BLI steady state titration, 1:1 model.

B1: CR6261 (antibody, V domains shown)
VH: EVQLVESGAEVKKPGSSVKVSCKASGGPFRSYAISWVRQAPGQGPEWMGGIIPIFGTTKYAPKFQGRVTITADDFAGTVYMELSSLRSEDTAMYYCAKHMGYQVRETMDVWGKGTTVTVSS
VL: QSVLTQPPSVSAAPGQKVTISCSGSSSNIGNDYVSWYQQLPGTAPKLLIYDNNKRPSGIPDRFSGSKSGTSATLGITGLQTGDEANYYCATWDRRPTAYVVFGGGTKLTVLG
As to B1, the BLI maximum response in assay [1] came to 0.25 nm. For the same molecule, the % positive cells in assay [2] is 80%; in assay [3], 80%; in assay [4], 80%; in assay [5], 80%; in assay [6], 60%. Also, the fold reduction of MFI against SEQ ID NO: 46 in assay [2] was 3 to 4 fold. Besides, the MFI relative to full-length HA was 50% in assay [3] and 10% in assay [6]. The Kd in assay [7] was 190 nM.
